Values quoted from earlier work in patent EP3906935A1, “PEPTIDES FOR PREVENTING OR TREATING VIRAL INFECTIONS” (SORBONNE UNIVERSITE, priority 2020, dated 2021).

Details: N- and C-protected peptide; experimental data reported by Zhou et al.

Q: With “Ac-EAEKAAKEAEKAAKEAEK-NH2 [SEQ ID NO: 146, peptide of eighteen residues with N- and C-protected extremities previously built by Zhou et al]” as the substance, how does the “content of amphipathic helical structure in solution” value read?
A: Its value is 65%.
